Measurements from PMC3260337.

Assays:
[1] = target: AS27[Y33R] monobody, displayed on yeast; assay: flow cytometry on cells
[2] = target: AS15[H33R] monobody, displayed on yeast; assay: flow cytometry on cells

A fold reduction of affinity against AS27 [1] of 8 times and a fold reduction of affinity against AS15 [2] of 4 times were found for “Abl SH2 domain, biotinylated (for yeast display measurements) (from UniProt P00519 112-232) (domain or fragment)” in this work.
